Source: patent US12648942B2, “Method for treating acute ischemic stroke” (Lumosa Therapeutics Co., LTD, priority 2021, dated 2026)
Like-named read-outs stand apart in the source and are kept apart here.

Legend:
[1] = Human plasma pharmacokinetics, summary statements of the description; type: in vivo
[2] = test system: minipigs; assay: Pre-clinical toxicity in minipig; type: in vivo; settings: set from pre-clinical toxicity result in minipigs
Experimental: According to inventors' pre-clinical toxicity result of DC009 in minipig, the inventors set up a limit on plasma exposure of 1177 ng/mL in minipigs. The inventors then set up a safety factor to provide a margin of safety for protecting human subjects receiving the initial clinical dose. As described in the Background, the default safety factor is 10 but it may be adjusted based on available safety data.

[3] = Plasma pharmacokinetics after single IV bolus in Sprague Dawley rat; type: in vivo; settings: for AUC(0-inf) / Cmax / AUC(0-t): male, Sprague-Dawley, rat, plasma, n=3; for AUC(0-t): read-out: AUClast, Mean (converted)
Experimental: The plasma pharmacokinetics of DC009 was studied in SD Rat following a single IV bolus administration of DC009. Male SD rats were dosed with DC009 at 0.001, 0.01, 0.1, 1 and 10 mg/kg by intravenous bolus injection with a dose volume of 1 mL/kg (n=3 per treatment group).

[4] = test system: patients with Acute Ischemic Stroke (AIS); assay: Study 201: Phase 2 single-dose study in patients with Acute Ischemic Stroke, efficacy (NIHSS, mRS); type: in vivo, human; settings: Day 90
Text: The objective of this Phase 2, double-blind, single-dose, randomized, placebo-controlled study is to evaluate the safety, tolerability, and potential efficacy of DC009 drug product in patients with Acute Ischemic Stroke (AIS). The safety and potential efficacy outcomes from this Phase 2 study will guide the design of future studies in patients with acute ischemic stroke. Eligible patients will be randomized 2:1 to receive DC009 drug product or placebo via a 15-minute IV infusion to obtain a total of approximately 24 evaluable patients. Eligible patients will receive a single 0.025 mg/kg dose of DC009 drug product or placebo within 24 hours after the onset of stroke symptoms.
The key inclusion criteria are as follows: Subject a) are to be aged 18-90 years, inclusive, at the time of screening, b) have a NIHSS of 4-30, c) clinical diagnosis of AIS within 24 hours after stroke symptom onset.
Tissue plasminogen activator (alteplase) is the only approved drug treatment for stroke in the US and, per the labeling, must be administered within 3 hours of stroke symptom onset. The approved window of administration in other countries varies. Because there is no approved drug treatment for acute ischemic stroke for administration beyond 3 hours of stroke symptom onset in the US, a placebo-controlled study would be ethically acceptable and is necessary in order to evaluate the drug effect objectively. Preliminary efficacy will be evaluated by assessing the infarct volume, occurrence of recurrent stroke, neurological outcome measured by NIHSS and functional independence measured by Modified Rankin Scale (mRS).
• The occurrence of symptomatic intracranial hemorrhage (sICH) within 36 hours after dosing, clinical deterioration defined as an increase in the NIHSS of 4 points or more and confirmed by computed tomography or magnetic resonance imaging. Secondary Endpoint: • The occurrence of symptomatic intracranial hemorrhage (sICH) and asymptomatic intracranial hemorrhage (aICH) within 7 days after dosing • The occurrence of mortality due to intracerebral or other major bleeding complications within 24 hours, 7 days, 30 days, and 90 days after dosing. • Number and severity of AEs within 90 days after dosing • The occurrence of recurrent stroke within 90 days after dosing • Functional outcome such as mRS • Neurological outcome such as NIHSS at 30 days • The change of infarct volume in CT or MRI examination at 24 hours and 7 days • Plasma PK parameters of DC009 Results Baseline Characterization

[5] = test system: subjects with acute ischemic stroke (AIS); settings: cited from earlier work
[6] = 0.001 mg/kg IV bolus, some concentrations below LLOQ 5 ng/mL
[7] = 0.01 mg/kg IV bolus, some concentrations below LLOQ 5 ng/mL

With `CC(NC(=O)C1CCCN1)C(=O)NC(CCCCN)C(=O)NCCCCC(NC(=O)C1Cc2cc(O)c(O)cc2C(C)(C)N1)C(=O)O` (stereo not drawn) [DC009, 3S-6,7-dihydroxy-1,1-dimethyl-1,2,3,4-tetrahydro-isoquinoline-3-acyl-Lys(Pro-Ala-Lys)] the “accumulation on multiple doses” value ([1]; administration of multiple doses) was “does not lead the accumulation”, the “plasma level after dosing” value ([1]; human plasma, 30 minutes after dosing) was “almost un-measurable” and the half-life ([1]; human plasma, read-out: elimination half-life) was under 5 min. For the same compound, the “limit on plasma exposure” value [2] was 1177 ng/mL, the “dose proportionality of Cmax and AUC0-∞” value ([3]; dose of 0.1 to 10 mg/kg groups) was “approximately dose-proportional increases” and the AUC(0-inf) [3, 6] was 1.88 ng·h/mL. The Cmax [3, 6] was 0.0016 µg/mL, the AUC(0-t) [3, 6] was 1.76 ng·h/mL and the AUC(0-inf) [3, 7] was 4.04 ng·h/mL. For the same compound, the Cmax [3, 7] was 0.0061 µg/mL, the AUC(0-t) [3, 7] was 3.35 ng·h/mL and the AUC(0-inf) ([3]; 0.1 mg/kg IV bolus) was 8.31 ng·h/mL. It also gave a Cmax ([3]; 0.1 mg/kg IV bolus) of 0.0599 µg/mL, an AUC(0-t) ([3]; 0.1 mg/kg IV bolus) of 7.89 ng·h/mL and an AUC(0-inf) ([3]; 1 mg/kg IV bolus) of 53.2 ng·h/mL. The Cmax ([3]; 1 mg/kg IV bolus) was 0.426 µg/mL, the AUC(0-t) ([3]; 1 mg/kg IV bolus) was 52.8 ng·h/mL and the AUC(0-inf) ([3]; 10 mg/kg IV bolus) was 937 ng·h/mL. For the same compound, the Cmax ([3]; 10 mg/kg IV bolus) was 8.12 µg/mL, the AUC(0-t) ([3]; 10 mg/kg IV bolus) was 936 ng·h/mL and the “subjects with mRS of 0-1” value ([4]; pre-dose 0%, 3 subjects) was 21%. For the same compound, the “subjects with mRS Score 3” value ([4]; pre-dose 6%) was 29%, the “subjects with mRS Score 2” value ([4]; pre-dose 13%) was 29% and the “subjects with mRS Score 5 or 4” value ([4]; pre-dose 81%) was 21%.

For “rtPA: Alteplase (Activase), a recombinant tissue-type plasminogen activator (rtPA) [reference compound]”, the “risk of symptomatic intracerebral hemorrhage” value [5] is listed as about 5 fold.
